The results in this text go back to patent CN114874324A (dated 2022).

In test [1] the target is T1, 可溶性LAG-3蛋白标准品(R&D Systems) (human, UniProt P18627 23-450, limits assumed).
T1 construct: also called sLAG-3蛋白; sLAG-3
T1 sequence (looked up): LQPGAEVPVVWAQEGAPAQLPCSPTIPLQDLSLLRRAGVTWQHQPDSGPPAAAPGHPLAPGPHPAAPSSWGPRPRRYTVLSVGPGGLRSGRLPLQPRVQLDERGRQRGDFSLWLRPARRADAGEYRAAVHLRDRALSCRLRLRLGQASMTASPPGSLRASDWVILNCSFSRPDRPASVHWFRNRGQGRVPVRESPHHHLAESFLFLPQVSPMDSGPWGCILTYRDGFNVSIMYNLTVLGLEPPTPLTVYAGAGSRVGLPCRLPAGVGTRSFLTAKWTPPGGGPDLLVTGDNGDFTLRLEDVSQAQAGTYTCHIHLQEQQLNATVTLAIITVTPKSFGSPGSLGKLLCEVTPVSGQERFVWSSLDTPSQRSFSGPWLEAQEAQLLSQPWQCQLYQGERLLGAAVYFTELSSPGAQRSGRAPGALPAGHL
As to the kind of experiment: sandwich ELISA, wells pre-coated with 4E12. In general terms: In an ELISA, binding on a coated surface is turned into a signal by an enzyme label.

The target in test [2] is T1, 可溶性LAG-3蛋白标准品(R&D Systems). As to the kind of experiment: sandwich ELISA of the kit (4F4 and 4E12 as the antibody pair).

B1: LAG-3-4E12抗体 (antibody, V domains shown)
VH: EVKLVESGGGLVQPGGSLKLSCAVSGFAIRSYDMSWVRQTPEKRLEWVATISSGGSYSYYPDSVKGRFTISRDNARNTLYLQMSSLRSEDTALYYCASLSTAPAYWGQGTLVTVSA
VL: DIVMTQSQKFMSTSVGDRVSVTCKASQNVGTNVAWYQQKPGQSPKALIYSASYRYSGVPDRFTGSGSGTDFTLTISNVQSEDLAEYFCQQYNTYPHMYTFGGGTKLEIK
notes: Mouse (BALB/c) hybridoma monoclonal antibody; also called LAG-3-4E12单克隆抗体; 抗LAG-3单抗(克隆:4E12)
Consider B1, for which, in test [1], the binding result is reported as “binds”.

B2: LAG-3-4F4抗体 (antibody, V domains shown)
VH: QLQLKESGPEVVRPGVSVKISCKGSGYTFTDYAMYWVKQSHAKSLEWIGVISTYNGNTNYNQRFKGKATMTVDKSSSTAYMELARLTSEDSAIYYCARERGAMDYWGQGTSVTVSS
VL: DVLMTQTPLSLPVSLGDQASISCRSSQSIVHNNGNTYLEWYLQKPGQSPKLLIYKVSSRFSGVPDRFSGSGSGTDFTLKISRVEAEDLGIYYCFQGSHVPPTFGGGTKLEIK
notes: Mouse (BALB/c) hybridoma monoclonal antibody; also called 抗人LAG-3-4F4单克隆抗体; LAG-3包被抗体
Take B2: the binding result in test [2] was “binds”.
